Measurements reported in doi:10.1101/405654.

The substances below were run against GMPCPP-stabilised, rhodamine labelled microtubules (porcine brain tubulin) (porcine (purified from porcine brain)) (UniProt P02550) (assay: single-molecule TIRF microscopy).
Sequence of UniProt P02550 (P02550 whole entry): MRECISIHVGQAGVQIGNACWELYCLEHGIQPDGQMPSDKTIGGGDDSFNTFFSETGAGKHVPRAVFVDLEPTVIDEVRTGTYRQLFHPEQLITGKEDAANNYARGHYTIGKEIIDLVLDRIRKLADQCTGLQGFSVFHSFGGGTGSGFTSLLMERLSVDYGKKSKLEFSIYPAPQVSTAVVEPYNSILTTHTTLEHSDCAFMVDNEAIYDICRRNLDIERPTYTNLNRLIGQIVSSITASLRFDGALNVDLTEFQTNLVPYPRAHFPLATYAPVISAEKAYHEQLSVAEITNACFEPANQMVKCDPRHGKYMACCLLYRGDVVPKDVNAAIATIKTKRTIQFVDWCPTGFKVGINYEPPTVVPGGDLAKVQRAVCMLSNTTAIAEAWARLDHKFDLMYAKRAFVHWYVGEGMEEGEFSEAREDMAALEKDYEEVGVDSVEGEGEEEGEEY

Compared with “Rat kinesin-1 rKin430-GFP-h6 G262K (domain or fragment)”, “Rat kinesin-1 rKin430-GFP-h6 N263E (domain or fragment)” is higher in microtubule end residence time: 0.74 s for the first, 0.98 s for the second.

Going from “Rat kinesin-1 rKin430-GFP-h6 S266A (domain or fragment)” to “Rat kinesin-1 rKin430-GFP-h6 triple mutant (G262K, N263E, S266R) (domain or fragment)”, the microtubule end residence time rises from 0.8 s to 0.97 s.

Compared with “Rat kinesin-1 rKin430-GFP-h6 S266R (domain or fragment)”, “Rat kinesin-1 rKin430-GFP-h6, wild type (domain or fragment)” is lower in microtubule end residence time: 1.39 s for the first, 0.35 s for the second.
